In patent US20230365700A1 (BIOSION, published 2023):
Read-outs that look alike come from different tables or passages of the source.

Columns and labels:
[1] = biological target: T1, full length human CD40 (uniprot #P25942-1, SEQ ID NO: 30) on 293T cells (human, UniProt P25942 21-277); experiment: flow cytometry (FACS) on 293T-CD40 cells expressing full length human CD40; MFI
Protocol: (§1) 2×10⁵ cells were incubated in each well of 96 well-plates in 100 μl anti-CD40 antibodies of the disclosure or controls of various concentrations (starting at 80 nM with a 4-fold serial dilution) in FACS buffer for 40 minutes on ice. […] Following an incubation of 40 minutes at 4° C. in dark, cells were washed three times and resuspended in FACS buffer. Fluorescence was measured using a Becton Dickinson FACS Canto II-HTS equipment and plotted against antibody concentration. Data was analyzed using Graphpad Prism software and EC₅₀ values were reported.

[2] = biological target: T2, human CD40-Fc protein (amino acid residue 21-193 of SEQ ID NO: 30 linked to N-terminus of amino acid residue … (human, biotin-labeled in the capture ELISA and the benchmark blocking ELISA; unlabeled when coated in the ligand blocking ELISA); experiment: competitive ELISA: antibody pre-incubated with biotin-labeled human CD40-Fc (0.23 nM), mixture added to coated BM2; competitor: BM2; OD(450-630); only partial: OD falls from about 1.13 to a plateau of about 0.92
T2 construct: also called biotin-labeled human CD40-Fc; human CD40-Fc-biotin
Protocol: (§2) The abilities of the anti-CD40 antibodies of the disclosure to block Benchmark-human CD40 binding was measured in a competitive ELISA assay. Briefly, the BM2 antibody was coated on 96-well micro plates at 1 μg/mL in PBS, 100 μl per well, and incubated overnight at 4° C. The next day, plates were washed once with wash buffer, and blocked with blocking buffer (5% w/v non-fatty milk in PBST) for 2 hours at 37° C. While blocking, the anti-CD40 antibodies of the disclosure or controls were diluted with biotin labeled human CD40-Fc protein (amino acid residue 21-193 of SEQ ID NO: 30 linked to N-terminus of amino acid residue 99-330 of SEQ ID NO.:28, 0.23 nM in 2.5% v/v non-fatty milk in PBST), starting at 66.7 nM with a 5-fold serial dilution, and incubated at room temperature for 40 minutes. After plate washing 4 times, the antibody/human CD40-Fc-biotin mixtures were added to BM2 coated plates, 100 μl/well. After incubation at 37° C. for 40 minutes, plates were washed 4 times again using wash buffer. […] Finally, TMB was added and the reaction was stopped using 1M H2504, and the absorbance was read on a microplate reader using dual wavelength mode with 450 nm for TMB and 630 nm as the reference wavelength, then the OD (450-630) values were plotted against antibody concentration. Data was analyzed using Graphpad Prism software and IC₅₀ values were reported.

[3] = biological target: T2, human CD40-Fc protein (amino acid …); experiment: capture ELISA: antibody captured on goat anti-mouse IgG F(ab')2-specific coat, detected with biotin-labeled human CD40-Fc (1.15 nM) and streptavidin-HRP; OD(450-630); the curve reaches only OD about 0.9 at the highest concentration, no plateau
Protocol: (§3) Plates were washed once with wash buffer (PBS+0.05% v/v Tween-20, PBST) and then blocked with 200 μl/well blocking buffer (5% w/v non-fatty milk in PBST) for 2 hours at 37° C. Plates were washed 4 times and incubated with 100 μl/well serially diluted anti-CD40 antibodies of the disclosure, BM1, BM2 and negative control hIgG (human immunoglobulin (pH4) for intravenous injection, Hualan Biological Engineering Inc.) (5-fold serial dilution in 2.5% w/v non-fatty milk in PBST, starting at 66.7 nM) for 40 minutes at 37° C., and then washed 4 times again. […] After a final wash, plates were incubated with 100 μl/well ELISA substrate TMB (Innoreagents, Cat #TMB-S-002) at room temperature. The reaction was stopped in 3-10 minutes with 50 μl/well 1M H₂SO₄, and the absorbance of each well was read on a microplate reader using dual wavelength mode with 450 nm for TMB and 630 nm as the reference wavelength, then the OD (450-630) values were plotted against antibody concentration. Data was analyzed using Graphpad Prism software and EC₅₀ values were reported.

[4] = biological target: T2, human CD40-Fc protein (amino acid …); experiment: capture ELISA: antibody captured on goat anti-mouse IgG F(ab')2-specific coat, detected with biotin-labeled human CD40-Fc (1.15 nM) and streptavidin-HRP; OD(450-630)
Protocol: as §3

[5] = biological target: T2, human CD40-Fc protein (amino acid …); experiment: competitive ELISA: antibody pre-incubated with biotin-labeled human CD40-Fc (0.23 nM), mixture added to coated BM2; competitor: BM2; OD(450-630); only partial: OD falls from about 1.13 to a plateau of about 0.77
Protocol: as §2

[6] = biological target: T1, full length human CD40 (uniprot …); experiment: flow cytometry (FACS) on 293T-CD40 cells expressing full length human CD40; MFI; remark: listed apart in the source
Protocol: as §1

[7] = biological target: T2, human CD40-Fc protein (amino acid …); experiment: competitive ELISA: antibody pre-incubated with biotin-labeled human CD40-Fc (0.23 nM), mixture added to coated BM2; competitor: BM2; OD(450-630)
Protocol: as §2

[8] = biological target: T2, human CD40-Fc protein (amino acid …); experiment: competitive ELISA: antibody added to coated human CD40-Fc, then biotin-labeled human CD40L-his (95 ng/mL); blocked ligand: CD40L-his; OD(450-630)
Protocol: (§4) The abilities of anti-CD40 antibodies to block CD40-CD40L binding were measured in a competitive ELISA assay. Briefly, 100 μl human CD40-Fc protein (amino acid residue 21-193 of SEQ ID NO: 30 linked to N-terminus of amino acid residue 99-330 of SEQ ID NO.:28) was coated on 96-well micro plates at 2 μg/mL in coating buffer (carbonate/bicarbonate buffer) and incubated overnight at 4° C. The next day, plates were washed once with wash buffer (PBS+0.05% v/v Tween-20, PBST), and blocked with 5% w/v non-fatty milk in PBST for 2 hours at 37° C. Plates were then washed 4 times using wash buffer.
Serially diluted anti-CD40 antibodies of the disclosure or controls (starting at 200 nM with a five-fold serial dilution) in PBST with 2.5% w/v non-fatty milk were added to the CD40-Fc bound plates, 100 μl per well, and incubated at 37° C. for 40 minutes. […] Finally, TMB was added and the reaction was stopped using 1M H2504, and the absorbance of each well was read on a microplate reader using dual wavelength mode with 450 nm for TMB and 630 nm as the reference wavelength, then the OD (450-630) values were plotted against antibody concentration. Data was analyzed using Graphpad Prism software and IC₅₀ values were reported.

[9] = biological target: T2, human CD40-Fc protein (amino acid …); experiment: as above; remark: listed apart in the source
Protocol: as §4
Serially diluted anti-CD40 antibodies of the disclosure or controls (starting at 200 nM with a five-fold serial dilution) in PBST with 2.5% w/v non-fatty milk were added to the CD40-Fc bound plates, 100 μl per well, and incubated at 37° C. for 40 minutes. Plates were washed 4 times again using wash buffer, and then added and incubated for 40 minutes at 37° C. with 100 μl/well 95 ng/mL biotin-labeled human CD40L-his protein (Sino biological Inc., Cat #10239-H08E). Plates were washed again using wash buffer. Thereafter, the plates were added with 100 μl/well of streptavidin conjugated HRP (1:10000 dilution in PBST buffer, Jackson Immunoresearch, Cat #016-030-084) and incubated for 40 minutes at 37° C. Plates were washed again using wash buffer. Finally, TMB was added and the reaction was stopped using 1M H2504, and the absorbance of each well was read on a microplate reader using dual wavelength mode with 450 nm for TMB and 630 nm as the reference wavelength, then the OD (450-630) values were plotted against antibody concentration. Data was analyzed using Graphpad Prism software and IC₅₀ values were reported.

[10] = biological target: T2, human CD40-Fc protein (amino acid …); experiment: capture ELISA: antibody captured on goat anti-mouse IgG F(ab')2-specific coat, detected with biotin-labeled human CD40-Fc (1.15 nM) and streptavidin-HRP; OD(450-630); remark: listed apart in the source
Protocol: as §3

[11] = biological target: T2, human CD40-Fc protein (amino acid …); experiment: competitive ELISA: antibody pre-incubated with biotin-labeled human CD40-Fc (0.23 nM), mixture added to coated BM2; competitor: BM2 (self-competition); OD(450-630)
Protocol: as §2

[12] = biological target: T2, human CD40-Fc protein (amino acid …); experiment: as above; remark: listed apart in the source
Protocol: as §2

| EC50 [1] [nM] | IC50 [2] [nM] | EC50 [3] [nM] | EC50 [4] [nM] | IC50 [5] [nM] | EC50 [6] [nM] | IC50 [7] [nM] | IC50 [8] [nM] | IC50 [9] [nM] | EC50 [10] [nM] | IC50 [11] [nM] | IC50 [12] [nM] | Binder |
| --- | --- | --- | --- | --- | --- | --- | --- | --- | --- | --- | --- | --- |
| 1.79 | 4.84 | 10.9 |  |  |  |  |  |  |  |  |  | mouse anti-CD40 monoclonal antibody 1D1 (antibody, V domains shown, Hybridoma-derived mouse mAb; also called Clone 1D1) VH: EVQLQQSGPELVKPGASVKMSCKASGYTFTDYVMHWVKQKPGQGLECIGYINPYNDGTTYNEKFKGKATLTSDKSSNAAYLELSSLTSEDSAVYYCARGFLRESWFGYWGQGTLVTVSA VL: DVLLTQTPLSLPVSLGDQASISCRSSQNIVHSNGNTYLDWYLQKPGQSPKLLIYKVSNRFSGVPDRFSGSGSGTDFTLKISRVEAEDLGVYYCFQGSHVPPTFGGGTKLELK |
| 1.71 |  |  | 0.0906 | 0.18 |  |  |  |  |  |  |  | mouse anti-CD40 monoclonal antibody 1A3 (antibody, V domains shown, Hybridoma-derived mouse mAb; also called Clone 1A3) VH: EVQLQQSGPELVKTGASVKISCKASGYSFIGYYLHWVKQSLGKGLEWIGYISCHDGTIIYNQKFKGKATFTLDTSSSTAYMQFSSLTSEDSAVYFCARFLNYYGSNYAMDYWGQGTSVTVSS VL: DIVMTQSHKFMSTSVGDRVSITCKASQDVGPAVAWYQQKPGQSPKLLIYWASTRHTGVPDRFTGSGYGTDFTLTINNVQSEDLADYFCQQYFTYPLTFGGGTKLEIK |
| 0.975 |  |  | 0.236 |  | 2.46 | 0.234 | 6.95 | 7.91 | 0.248 |  |  | BM1 (Dacetuzumab) (antibody, human IgG1, kappa, V domains shown, Benchmark antibody, made in house; also called CD40-BM1; benchmark) VH: EVQLVESGGGLVQPGGSLRLSCAASGYSFTGYYIHWVRQAPGKGLEWVARVIPNAGGTSYNQKFKGRFTLSVDNSKNTAYLQMNSLRAEDTAVYYCAREGIYWWGQGTLVTVSS VL: DIQMTQSPSSLSASVGDRVTITCRSSQSLVHSNGNTFLHWYQQKPGKAPKLLIYTVSNRFSGVPSRFSGSGSGTDFTLTISSLQPEDFATYFCSQTTHVPWTFGQGTKVEIKR |
| 2.01 |  |  | 0.637 |  | 3.26 |  | 9 | 9.7 | 0.28 | 0.804 | 0.678 | BM2 (Selicrelumab) (antibody, human IgG2, kappa, V domains shown, Benchmark antibody, made in house; also called CD40-BM2; benchmark) VH: not shown VL: DIQMTQSPSSVSASVGDRVTITCRASQGIYSWLAWYQQKPGKAPNLLIYTASTLQSGVPSRFSGSGSGTDFTLTISSLQPEDFATYYCQQANIFPLTFGGGTKVEIKR |
|  |  |  |  |  | 1.95 |  |  | 7.83 | 0.0774 |  |  | mouse anti-CD40 monoclonal antibody C1H1 (antibody, V domains shown, Hybridoma-derived mouse mAb purified on Protein A; also called mouse C1H1; Clone C1H1) VH: EVKLVESGGGLVKPGASLKLSCAASGFTFSNYGISWVRQTSDKRLEWVASISSGGDNTYYPDNVKGRFTISRENAKNTLYLQMSSLKSEDTALYYCARAGEKAMDYWGQGTSVTVSS VL: DIVLTQSPVTLSVTPGDSVSLSCRASQTINNNLHWYQQKSHESPRLLIKYASQSISGIPSRFSGSGSGTDFTLSINSVETEDFGIYFCQQFSSWPLTFGAGTKLELK |
